Paper doi:10.1101/2019.12.19.882373

Legend:
Experiment in all cases: FRET or BRET
[1] = biological target: CipA cohesin 7 module (c7A) (C. thermocellum) (UniProt Q06851)
[2] = biological target: CipA cohesin 2 module (c2A), G144C, labelled with Cy3B (C. thermocellum)
[3] = biological target: CipA cohesin 1 module (c1A) (C. thermocellum) (UniProt Q06851)
[4] = biological target: cohesin 1 from scaffoldin CipC (c1C) (C. cellulolyticum)
[5] = biological target: cohesin module 7 of scaffoldin CipC (c7C) (C. cellulolyticum)

fraction of complexes in binding mode B1 [1] | fraction of complexes in binding mode B1 [2] | fraction of complexes in binding mode B1 [3] | fraction of complexes in binding mode B1 [4] | fraction of complexes in binding mode B1 [5] | fraction of complexes in binding mode B1 (cyclophilin-treated) [2] | Substance
0.69 | 0.89 | 0.59 |  |  |  | swapped version of dockerin celS (celS_Swap), helices H1 and H3 exchanged (domain or fragment)
 |  |  | 0.26 | 0.45 |  | dockerin from the cellulase 5A of C. cellulolyticum (CcCel5A) (domain or fragment)
 | 0.42 |  |  |  | 0.2 | dockerin celS single residue clasp mutant Y5A (celS_Y5A) (domain or fragment)
0.48 | 0.37 |  |  |  |  | dockerin from cellulase A (CelA) (domain or fragment)
0.58 | 0.43 |  |  |  |  | dockerin CelS (type-I dockerin module of cellulase S), D63C, labelled with Alexa Fluor 647 (domain or fragment)
